Source: US20220227882A1 (TRUSTEES OF TUFTS COLLEGE, published 2022)

B1: ADP2 (antibody, V domains shown)
VH: EVKLVESGGGLVQPGGSLSLSCAASGFSFPDYYMSWVRQPPGKALEWLGFIRDSANGYTTEYIASVKGRFTFSRDNSQSILYLQMNALRAEDSATYYCARYSRYYGMDYWGQGTSVTVSS
VL: SIVMTQTPKILLVSAGDRVTITCKASQTVNYDVAWYQQKPGQSPKPVIYFASNRYTGVPDRFTGSGFGTDFTFTISTVQAEDLAVYFCQQDYSAPWTFGGGTKLEIK
notes: also called mADP2; mouse ADP2
B2: ADP3 (antibody, IgG1, V domains shown)
VH: EVKLEESGGGLVQPGGSMKLSCAASGFTFSDAWMDWVRQSPEKGLEWVAEIRGKVNNLATYYVESVKGRFTISRDDSKSSVYLQMNSLRAEDTGIYYCLGRYDATYAMDYWGQGTSVTVSS
VL: DVVMTQTPLSLPVSLGDQASISCRSSQSLVHSDGNTYLHWYLQKPGQSPKLLIYKLSNRFSGVPDRFSGSGSGTDFTLKISRVEAEDLGVYFCSQSTHVPWTFGGGTKLEIK
B3: ADP13 (antibody, IgG1, V domains shown)
VH: EVQLQQSGPEMVKPGTSVKISCKASGYTFTDYYINWVKQSHGKSLEWIGDISPNIGGATYNPKFKGKAILTVDKSARTAYMELRSLTSEDSAVYCCTRGGSSYPYFYAMDYWGQGTSVTVSS
VL: DIVMSQSPSSLAVSVGEKVTMSCKSSQSLLYSSNQKKYLAWYQQKPGQSPKLLIYWASTRESGVPDRFTGSGSGTDFTLTISSVKAEDLAVYYCQQFYSYPYTFGGGTKLEINR
notes: also called mADP13; mouse ADP13

target: T1, Recombinant human ADAM8 (rHuADAM8) ectodomain protein (aa 17-497), ACRO Biosystems AD8-H5223 (human, UniProt P78325 17-497); assay: ELISA, coated rHuADAM8
T1 construct: Bought protein made in HEK293 cells; The protein clips off its own prodomain (aa 17-191); also called rhADAM8; immunogen
T1 sequence: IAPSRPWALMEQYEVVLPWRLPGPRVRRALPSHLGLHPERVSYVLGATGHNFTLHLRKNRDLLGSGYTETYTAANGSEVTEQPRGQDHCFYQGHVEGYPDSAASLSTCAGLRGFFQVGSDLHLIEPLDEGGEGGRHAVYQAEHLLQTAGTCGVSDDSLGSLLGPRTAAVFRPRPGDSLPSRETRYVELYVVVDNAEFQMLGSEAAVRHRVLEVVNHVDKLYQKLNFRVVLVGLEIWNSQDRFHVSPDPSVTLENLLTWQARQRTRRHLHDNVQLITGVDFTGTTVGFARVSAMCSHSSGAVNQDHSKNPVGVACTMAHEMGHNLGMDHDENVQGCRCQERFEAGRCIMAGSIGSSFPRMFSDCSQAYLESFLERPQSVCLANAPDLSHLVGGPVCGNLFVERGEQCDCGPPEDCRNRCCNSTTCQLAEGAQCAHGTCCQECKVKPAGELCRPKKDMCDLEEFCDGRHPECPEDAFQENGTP
Experimental: ELISAs were performed to assess the anti-ADAM8 antibodies for binding to rHuADAM8 during preparation and screening stages, using mouse sera, hybridoma supernatants and purified mouse and chimeric ADPs. ELISA plates (96-well) were coated with 1 μg/ml rHuADAM8 (Acro Biosystems, AD8-H5223) overnight at 4° C. Plates were washed three times with phosphate buffered saline (PBS) containing 0.05% Tween 20 (PBST) and blocked with 1% bovine serum albumin (BSA) in PBST at 37° C. for 1 hr. Plates were then exposed to sera, supernatants or purified antibodies for 1 hour at 37° C.
For analysis of antibodies in the serum of mice, pre-bleed and test bleed samples in 6 dilutions ranging from 1:100 to 1:10,000,000 were tested. For analysis of antibodies in hybridoma clone and subclone supernatants, plates were subjected to 50 μl of supernatants. A test bleed sample (1:1000) and hybridoma culture medium were used as positive and negative controls, respectively. For purified antibody characterization, coated plates were incubated with eight increasing concentrations of each specific ADP ranging from 10⁻⁵ to 10³ nM. Normal mouse IgG (1 μg/ml) was used as a negative control to indicate the level of general non-specific binding and a test bleed sample (1:100) was used as a positive control. Samples were washed three times with PBST and incubated for 30 minutes at 37° C. with a secondary goat anti-mouse IgG (Fc specific)-HRP antibody (Sigma A0168, 1:5000). After washing three times with PBST, the signal was developed with addition of 100 μl of the horseradish peroxidase substrate 3,3′,5,5′-Tetramethylbenzidine (TMB) for 10 minutes at room temperature, followed by quenching with 50 μl 1N HCl. Signal was read in a 96-well spectrophotometer at an optical density (OD) of 450 nm.

Binder | EC50 [nM]
B1 | 0.029
B2 | 0.049
B3 | 0.054

target: T2, Full-length human ADAM8 on cells (HEK293-ADAM8 stable or transfected cells); also endogenous ADAM8 of breast … (human, UniProt P78325 17-824); assay: FACS, HEK293-ADAM8 cells, antibody 1 µg/ml
T2 construct: On cells the proform, the active form and the remnant form can all be present; also called native ADAM8; HEK293-A8
T2 sequence: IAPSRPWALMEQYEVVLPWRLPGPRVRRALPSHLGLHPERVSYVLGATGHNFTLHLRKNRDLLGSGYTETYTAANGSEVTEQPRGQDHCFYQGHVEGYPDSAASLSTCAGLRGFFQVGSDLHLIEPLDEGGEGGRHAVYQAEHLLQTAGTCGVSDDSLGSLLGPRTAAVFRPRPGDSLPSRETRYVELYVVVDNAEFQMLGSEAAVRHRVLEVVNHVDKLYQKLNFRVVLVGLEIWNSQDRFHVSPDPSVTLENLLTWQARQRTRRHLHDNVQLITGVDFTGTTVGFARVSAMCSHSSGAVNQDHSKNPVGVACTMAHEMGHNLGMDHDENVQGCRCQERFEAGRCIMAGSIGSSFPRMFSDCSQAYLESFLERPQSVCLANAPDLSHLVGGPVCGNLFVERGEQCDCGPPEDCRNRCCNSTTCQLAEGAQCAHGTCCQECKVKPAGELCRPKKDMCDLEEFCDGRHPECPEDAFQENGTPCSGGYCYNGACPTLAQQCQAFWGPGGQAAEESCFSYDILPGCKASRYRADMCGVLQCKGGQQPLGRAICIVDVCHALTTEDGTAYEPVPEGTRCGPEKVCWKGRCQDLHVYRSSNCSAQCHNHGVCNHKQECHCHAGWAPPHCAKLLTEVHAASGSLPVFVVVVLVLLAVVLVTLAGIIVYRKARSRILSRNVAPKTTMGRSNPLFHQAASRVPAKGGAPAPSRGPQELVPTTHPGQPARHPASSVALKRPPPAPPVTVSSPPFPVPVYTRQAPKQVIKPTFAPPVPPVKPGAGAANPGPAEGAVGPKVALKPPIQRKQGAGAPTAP

Binder | MFI [MFI]
B1 | 156
B2 | 96.5
B3 | 21.1

target: T1, Recombinant human ADAM8 (rHuADAM8) …; assay: Biacore SPR, rHuADAM8 as analyte
Experimental: For Biacore assays, each ADP was used as the ligand in a multiple cycle kinetics method performed on a Biacore™ T200 surface plasmon resonance system (GE Healthcare Life Sciences) machine. ADP proteins were captured using anti-mouse Fc IgG attached to a dextran matrix, and rHuADAM8 (Acro Biosystems, AD8-H5223) added as the analyte at concentrations ranging from 3.75 nM to 200 nM. HBS-EP+ (10 mM HEPES, 0.15 M NaCl, 3 mM EDTA, 0.05% Surfactant P20) running buffer was passed at a flow rate of 30 μl/min and antigen injected at 30 μl/min. The association and dissociation phases were carried out for 180 s and 600 s, respectively. Surface regeneration was performed for 30 s at 30 μl/min of Glycine pH 1.5. Values for association rate constant (kₐ), dissociation rate constant (kd) and equilibrium dissociation constant (KD) were calculated through the Biacore™ T200 Software.

Binder | Kd [nM]
B1 | 3.34
B2 | 18.3
B3 | 1.3
